# Experimental data from article doi:10.1101/2025.07.10.664194 (bioRxiv, 2025).
# T1: BcGabija GajA (Bacillus cereus, UniProt J8H9C1 1-578)
# T1 construct: also called Bacillus cereus GajA nuclease subunit
# T1 sequence: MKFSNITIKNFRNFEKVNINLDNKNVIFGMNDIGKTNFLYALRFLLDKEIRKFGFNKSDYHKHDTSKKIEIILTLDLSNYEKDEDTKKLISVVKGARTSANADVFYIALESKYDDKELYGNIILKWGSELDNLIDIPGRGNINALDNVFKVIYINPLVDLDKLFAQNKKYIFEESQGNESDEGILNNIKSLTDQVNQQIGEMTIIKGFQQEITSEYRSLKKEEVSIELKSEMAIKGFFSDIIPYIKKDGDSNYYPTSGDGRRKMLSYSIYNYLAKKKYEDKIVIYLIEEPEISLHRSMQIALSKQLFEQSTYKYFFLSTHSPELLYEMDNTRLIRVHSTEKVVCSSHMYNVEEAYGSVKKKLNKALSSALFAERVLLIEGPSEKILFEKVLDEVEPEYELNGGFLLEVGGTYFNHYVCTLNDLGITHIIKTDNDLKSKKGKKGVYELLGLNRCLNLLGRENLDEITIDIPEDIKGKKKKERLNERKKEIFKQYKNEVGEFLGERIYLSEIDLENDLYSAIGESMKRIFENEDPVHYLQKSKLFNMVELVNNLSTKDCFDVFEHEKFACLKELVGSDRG
# Target: T1, BcGabija GajA
# Experiment: mass photometry
# Details: both partners purified
binder,measurement,value
"BcGabija GajB (natural protein, also called NTPase subunit of BcGabija) MSREQIIKDGGNILVTAGAGSGKTTILVSKIEADLKENKTHYSIAAVTFTNKAAKEIEGRLGYSSRGNFIGTNDGFVESEIIRPFIKDAFGNDYPDNFTAEYFDNQFASYDKGLQVLKYQNILGTYSNPKKNFKFQLALDILKKSLVARQYIFSKYFKIFIDEYQDSDKDMHNLFMYLKDQLKIKLFIVGDPKQSIYIWRGAEPENFNGLIENSTDFNKYHLTSNFRCCQDIQNYSNLFNEETRSLIKEKNEVQNVISIADDMPISDILLKLTEEKQVLNIEAELVILVRRRNQAIEIMKELNEEGFNFIFIPQTPLDRATPNATLLKEVIKYVKNDRYSIYDLAAEIVGNLSSREIKEIQKIINELLVPNINQVLINQVLINLFAKLEITLDTREITAFTEVMMTNEFDIAFDTNEYLHKIFTVHSAKGLEFNQVIITASDYNVHYNRDTNEHYVATTRAKDKLIVIMDNKKYSDYIETLMKELKIKNIIKSI",stoichiometry N,1 GajA:GajB (4:4)
